The results in this text go back to US20230122364A1 (VANDERBILT UNIVERSITY, published 2023).

The labels stand for the following.
B1: COV2-2082 (antibody, V domains shown)
VH: EVQLVESGGGVVRPGGSLRLSCAASGFIFDDYDMTWVRQAPGKGLEWVSGISWNGGNTGYADSVKGRFTISRDNAKNSLYLQMNSLRAEDTALYHCAVIMSPIPRYSGYDWAGGAFDIWGQGTMVTVSS
VL: SSELTQDPAVSVALGQTVRITCQGDSLRSYYASWYQQKPGQVPILVIYDKNNRPSGIPDRFSGSSSGNTASLTITGAQAEDEADYYCNSRDSSGNAVVFGGGTKLTVL
B2: COV2-2113 (antibody, V domains shown)
VH: EVQLVESGGGLIQPGGSLRLSCAASEVTVSSNYMSWVRQAPGKGLEWVSLIYSGGTTYYADSVKGRFTISRDNSKNTLYLQMNSLRAEDTAVYYCARDFLRWHDLWGQGTLVTVSS
VL: DIQMTQSPSSLSASVGDRVTITCQASQDINNYLNWYQQKPGKAPKLLIYDASNLETGVPLRFSGSGSGTDFIFTISSLQPEDIATYYCQQYDNLPPVFGGGTKVEIK
B3: COV2-2098 (antibody, V domains shown)
VH: EVQLLESGGGLIQPGGSLRLSCAASGFTFSNYAMSWVRQAPGKGLEWVSGIISTSGGATYNADSVRGRFTTSRDNSKNILYLQMNSLRGEDTAVYYCVKGLFDWFPLWGQGTMVTVSS
VL: DIVMTQSPATLSVSPGERAILSCRASQSVRSNLAWYQQKPGQAPRLLISGASTRATAIPARFSGSGSGTEFTLTITSLQSEDCAVYYCHQYNNWPQTFGQGTKVEIK
B4: COV2-2050 (antibody, V domains shown)
VH: QVQLVQSGAEVKKPGASVKVSCKASGYTFTDYYMHWVRQAPGQGLEWMGWINPNSRGTNYAQKFQGRVTMTRDTSISTVYMELSRLTSDDTAVYYCARVVVLGYGRPNNYYDGRNVWDYWGQGTLVTVSS
VL: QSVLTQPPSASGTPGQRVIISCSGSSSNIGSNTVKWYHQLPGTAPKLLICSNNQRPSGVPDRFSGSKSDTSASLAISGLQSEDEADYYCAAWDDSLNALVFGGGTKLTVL
B5: COV2-2103 (antibody, V domains shown)
VH: EVQLVESGGGLVQPGGSLRLSCAASGFTFSRHWMTWVRQAPGKGLEWVANIKQDGSEKYYVDSVKGRLTISRDNAKNSLYLQMNSLRAEDTAVYYCARLGFYYGGADYWGQGTLVTVSS
VL: NFMLTQPHSVSESPGKTVTISCTGSSGSIASNYVQWYQQRPGSAPTTVISEDNQRPSGVPDRFSGSIDSSSNSASLTISGLKTEDEADYYCQSYDGINRAWVFGGGTKLTVL
B6: COV2-2068 (antibody, V domains shown)
VH: EVQLVESGGGLVQPGGSLRLSCAASGFTVSSNYMSWVRQAPGKGLEWVSVIYPGGSAFYADSVKGRFTISRHNSNNTLCLQMNSLRTEDTAVYYCARSYDILTGYRDAFDIWGQGTMVTVSS
VL: QSVLTQPPSVSGAPGQRVTISCTGSSSNIGSGSDVHWYQQLPGTAPKLLIYGNTNRPSGVPDRFSGSKSGTSASLAITGLQAEDEADYYCQSYDSRLSGFVVFGGGTKLTVL
B7: COV2-2132 (antibody, V domains shown)
VH: B2 VH
VL: B2 VL with I72T
B8: COV2-2046 (antibody, V domains shown)
VH: EVQLVESGGGLVQPGRSLRLSCAASGFTFDDYAMHWVRQAPGKGLEWVSGISWNSGSIAYTDSVKGRFTISRDNAKNSLYLQMNSLRAEDTALYYCAKAHSTGHQYYYGMDVWGQGTTVTVSS
VL: DIQMTQSPSSLSASVGDRVTITCRASQSISSFLNWYQQKPGKAPKLLIYAAFNLQSGVPSRFSGSGSGTDFTLTISSLQSEDFATYYCQQSYNTPYTFGQGTKLEIK
B9: COV2-2961 (antibody, V domains shown)
VH: EVQLVQSGPEVKKPGTSVKVSCKASGFTFMSSAVQWVRQARGQRLEWIGWIVIGSGNTNYAQKFQERVTITRDMSTSTAYMELSSLRSEDTAVYYCAAPYCSSISCNDGFDIWGQGTMVTVSS
VL: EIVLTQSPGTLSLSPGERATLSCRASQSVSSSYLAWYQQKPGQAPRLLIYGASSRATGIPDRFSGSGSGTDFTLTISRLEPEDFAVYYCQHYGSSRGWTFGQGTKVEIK

Positions count from the first letter of the chain named.

The target of the first experiment is T1, prefusion conformation-stabilized SARS-CoV-2 spike ectodomain (S2Pecto) protein (SARS-CoV-2, UniProt P0DTC2 14-1213; P10104 458-484). The experiment in a line: competition ELISA on coated S2Pecto; hACE2-FLAG binding inhibited. On the technique in general: In an ELISA, binding on a coated surface is turned into a signal by an enzyme label.
Regarding B1, the IC50 (usually the midpoint of a concentration-inhibition curve) is 0.043 µg/mL.
Same read-out and setting: to B2 belongs 0.06 µg/mL.
In turn, B3 showed an IC50 of 0.048 µg/mL.
The same measure, in the same setting: the same measure for B4: 0.063 µg/mL; for B5: 0.079 µg/mL; for B6: 0.166 µg/mL.

For the next experiment, the target named is T1, prefusion conformation-stabilized …. Put plainly: ELISA on coated S2Pecto.
In the case of B1, the EC50 (as a rule, the concentration that produces a half-maximal response) was 0.0011 µg/mL.
Still for that read-out and setting: to B2 belongs 0.0018 µg/mL; to B3, 0.0013 µg/mL.
For the molecule B4, the EC50 was determined as 0.0017 µg/mL.
Same read-out and setting: to B5 belongs 0.0029 µg/mL.
Still for that read-out and setting: to B6 belongs 0.0074 µg/mL.

For another experiment the target is unchanged. The experiment in a line: ELISA, purified IgG.
B1: the “OD 450 nm” value turned out to be 4.3 OD 450 nm.
The same measure, in the same setting: to B2 belongs 4.4 OD 450 nm; to B7, 4.4 OD 450 nm; to B3, 4.3 OD 450 nm.
Consider B4, for which the “OD 450 nm” value was 4.3 OD 450 nm.
B5: the “OD 450 nm” value came out at 4.3 OD 450 nm.
As to B8, the “OD 450 nm” value turned out to be 4.3 OD 450 nm.
On the same count and under the same terms, the same measure for B9: 3.6 OD 450 nm; for B6: 4.3 OD 450 nm.
